The supplement of paper PMC12042874
± gives the uncertainty stated by the source.

Assay: amyloid nucleation score (Sup35N fusion, yeast selection) (log enrichment); library NNK3; higher = more nucleation; inactive = no reads after selection
In short: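 The nucleation score is the log enrichment of output over input reads, calculated with DiMSum and centred on the mode score of non-aggregating sequences. Sequences with under 100 input reads were excluded. Reads came from Illumina sequencing of plasmid inserts from psi-negative yeast expressing Sup35N fused to peptides of 20 random codons, induced 24 hours with 100 μM copper sulfate and grown 7 days at 30°C without adenine and uracil.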

Row | Substance | amyloid nucleation score
1 | IQMSNLNNTSLQVRRPRPCV | inactive
2 | LLLIGINVKMFWSFRVWLCN | inactive
3 | NMIWANEQE | inactive
4 | GLTLFWITAVAQAWDWLDPL | inactive
5 | SVIMFINRIPGSNPL | inactive
6 | SFVQLMFLFGT | 1.83 ± 0.076
7 | LLWYKLSELR | inactive
8 | WGLRFFIWQPRDMFSACCTC | 1.6 ± 0.11
9 | YHTARFGIKFLLRM | inactive
10 | TAIRIMMRV | inactive
11 | THRDYLMVRYCGSCHVEMVS | inactive
12 | KMFWLVTHRLN | inactive
13 | IYCPNIILLVKRHGVFQMFL | 2.3 ± 0.072
14 | MLGVMCLYQVVFIDHSYSYR | inactive
15 | MEFYVYTMDKRCSRMFSWHS | inactive
16 | SARYDFSYEYGRIKYRELDR | 1.1 ± 0.15
17 | SSSRMFSSLFSVCIWVDTII | inactive
18 | KYVRVLHCIDLFRSSLSHIG | inactive
19 | MTRVNFYFLFFELLLMAFGV | inactive
20 | DPWDPYFNLRVSYPFKYYLS | inactive
21 | LVWRTSINSLRMVEDNRDEV | inactive
22 | VIMFVAIGWLLR | inactive
23 | FVTAKQCVVCRQ | inactive

Row | Substance | amyloid nucleation score
24 | SSFFRMLVLIVMRCQDTSNR | inactive
25 | CFSAASTVKNMIEGCCRGMY | inactive
26 | LTNTLAYTVRKKTFQIGLLC | inactive
27 | RGGGQDDYTRFLGSLNDVPV | inactive
28 | MLITYTLYCVICLGC | 1.46 ± 0.072
29 | NYPIA | inactive
30 | MFSSLV | inactive
31 | FMLGDAVFRFFVRNGGRIDN | inactive
32 | GIGCDLFRCADTRWIVLPSM | inactive
33 | SLEVINVVRININNQEYIYL | 0.276 ± 0.23
34 | IIAGGTYECQIQIVYF | 1.22 ± 0.14
35 | GICNQNIPQRGSMWLVSKTF | inactive
36 | ALFSFDNSNYMVSNGAIGRV | -0.167 ± 0.75
37 | VFPPEMRVFPLFCW | inactive
38 | AHREFLFRMTVWNITKGLIL | -0.481 ± 0.9
39 | NILLND | inactive
40 | QDYSELRVSKKKVVRVG | inactive
41 | ITRTSDLFMLGSLINRGIAA | inactive
42 | VIVRDSLISVSSTIRDFVCG | inactive
43 | CAPLSVVWNSRGFM | inactive
44 | PIRSNVAMIPDD | inactive
45 | GDKISANACSMNFFDMFW | inactive
46 | DSSRTVGCLSCFYFAIGFWI | 0.681 ± 0.34

Row | Substance | amyloid nucleation score
47 | FTLPKHFTRIL | inactive
48 | IEREMCTGNLVPLNAWKRFH | inactive
49 | YPTWKGIFNRWAEYCIRLPV | -0.266 ± 0.36
50 | MCMLIYCYAQSLVMKMDSHY | inactive
51 | LFRLACVTNMRSNLLSYRRC | 0.131 ± 0.64
52 | VDTILSNKVYVRAPPKRGSK | inactive
53 | NDKVYRVGRTNLYNV | inactive
54 | IRYSGFPYPSNLWHTSATLY | inactive
55 | VGWTVGYKW | inactive
56 | KRGLTGVSLVLDETVAVPSD | inactive
57 | LSYSIRLLIFVRR | -0.293 ± 0.82
58 | HNSRN | 0.186 ± 0.21
59 | LENRSFNMMMFV | inactive
60 | SWYESKFVAVRWWIGDPLRG | 0.703 ± 0.26
61 | WTGFFCNAVKTTTGFNALFL | inactive
62 | TIKYVDRPARTGGEALAIVV | -0.323 ± 1
63 | FNWTN | inactive
64 | RKFTVSISRGNWSHAWTYSE | inactive
65 | LSDYIGAPFSSKSRDW | inactive
66 | TVSKCSERRVCTPGDSCVAC | inactive
67 | WNVPGVHCCIWVTRWEMGPT | 2.72 ± 0.078
68 | VRLWFSGRTFSVKVVTHAPC | 1.41 ± 0.098
69 | CMYSFGEL | inactive

Row | Substance | amyloid nucleation score
70 | FAVQCWKAGVAKNYGMHFVC | inactive
71 | SDTRGVF | inactive
72 | SEIRGNRNMTTEAPT | inactive
73 | GGKLGTLCSNSRYGSVHMGV | inactive
74 | KSWYEFPKMLRNHRTYNQRL | inactive
75 | CNLDLVANT | inactive
76 | DNMSKTSFKLTNCRQCIM | inactive
77 | TPDFVRSRKMNWVAIKKRAE | inactive
78 | FLDDLTLVHGRSETKKNL | inactive
79 | YIEYIWWRLSSWLRSMKGLR | inactive
80 | FALSWSSNGAALLRLELTTL | 0.224 ± 0.44
81 | LLLWGTHHSMIYYDGCLIFI | inactive
82 | CHMCVVLAV | inactive
83 | FFQDQFVDWLDYTVLRI | inactive
84 | LLVMWWYRLTGPDGVSNWR | inactive
85 | MPLTFTSRSSDVICLNVGSG | -0.232 ± 0.62
86 | PLGDARLTSRRDPPYRTTPL | 0.979 ± 0.17
87 | SIGWSLCENRRQPGSRWSLP | inactive
88 | NIRYFYAFRLA | inactive
89 | FSGNRSGESSVRWNQYELGV | inactive
90 | DNCCKLARVLAWFVFNRLNR | inactive
91 | SVNPAKHVMCKRAPGCGKLH | inactive
92 | SLVSGLRCVWLMFVSNGHQK | inactive

Row | Substance | amyloid nucleation score
93 | DRLRYNLWS | inactive
94 | YIYLTQGTARNIDYT | 0.047 ± 0.43
95 | HYKVPWF | inactive
96 | EIFGSISG | inactive
97 | FYTFYSHLNELLHL | -0.009 ± 0.66
98 | LCFRCASLTESIGL | inactive
99 | SCFTEIEWS | inactive
100 | TYMFMVAYNVSTRPRKLLNC | inactive
101 | YWQHWWL | inactive
102 | TAKMSRVYCCCFSLFDVSLK | inactive
103 | NYILSHWELV | inactive
104 | LGVRNDPQQSLPVQFGFELE | 0.041 ± 1.2
105 | RLSLDRRNVRPDDMVHASGG | inactive
106 | LNSTTCLTAGWIGNAFIACN | inactive
107 | SLRSYSGILSFYGYSGKIST | inactive
108 | VWVMSSWTVRIISPTVWMLV | inactive
109 | SACNAPSLNSTLIVT | inactive
110 | IYILYVMDF | inactive
111 | PYMIEVLRSDVNHDCSHMKW | inactive
112 | TLSCDRKNCVVHCFLIQRFL | inactive
113 | AVYLGGGHKSCRRSRRWLVS | inactive
114 | LCSAIGWSSACIFVWSYYTR | inactive
115 | RKTRDSCTMGSNTTWRVIFC | 0.158 ± 0.49

Row | Substance | amyloid nucleation score
116 | SRKIFEGTIRIRLTDSASFS | inactive
117 | PFHGCPTHDCFNAGILALTV | inactive
118 | CVFCVNRTLLIVWIMVRY | inactive
119 | SPDHLGRLLY | inactive
120 | VDLWYIFGPSPYATCFVLLV | inactive
121 | FGTVAWPITFIIRMAVGSSC | 0.936 ± 0.15
122 | NPDLVFWFKYLWYDGSCQ | inactive
123 | NDFVRSADKDFGSDRFSNVV | inactive
124 | PYRYLGARIRCMAKDSVSHI | inactive
125 | VGRAEWLC | inactive
126 | CVMNRN | inactive
127 | YIYWQRTTSRVLERSVILNV | inactive
128 | YWVWLGPQNI | 0.115 ± 0.41
129 | SPFEFRCIVESEFCMKNWAG | 0.866 ± 0.25
130 | FLTDASWGSIFWKFLRASFV | 0.621 ± 0.14
131 | AYSVSRSALRSEANRIGSR | inactive
132 | FKYYRSYYPYICLKSVI | inactive
133 | GVDCQASILHPCLFF | inactive
134 | FFNVMVS | inactive
135 | GGFVLC | inactive
136 | IRLCLLSIMWLNGWLSAIHA | inactive
137 | PREARQHRVRRTGFSVVFVS | inactive
138 | CEMLMGRVIFWSPQPQLWNY | inactive

Row | Substance | amyloid nucleation score
139 | YMCSLLMIAKSMPGRG | 1.42 ± 0.14
140 | PVFVCCRWHVVFGKNNGSAT | 1.47 ± 0.13
141 | WHNMSMMKSVPTYSGESHTR | 0.97 ± 0.18
142 | VFSFDMLHRLG | 1.53 ± 0.099
143 | HSTLSLMHDSYRACSWKCNA | inactive
144 | SNEHAVVYS | inactive
145 | SYSDRGCVGMNVLSVFEGWD | inactive
146 | FLILSNEIMPLFTWANKRLE | inactive
147 | RLQMRSATLYCEGGSGAILY | inactive
148 | AILLNWNCVNFPCFEIYPYL | 1.7 ± 0.063
149 | TLLPLQMFTNHWALMPSSHR | 0.125 ± 0.9
150 | RMAYNFTKSR | inactive
151 | IGMKFCAYVLLSYKAITMFG | inactive
152 | VQFFNDRSLVDSQIGRLLLP | inactive
153 | SMRILR | inactive
154 | SWSANSCFVRIEKISLHNVG | inactive
155 | CTPFTLECW | -0.193 ± 1.1
156 | VFSFRTYNLYGEDNEQLLHW | inactive
157 | SENVYPCALKRSKGMLIRMV | inactive
158 | MLMVDDYEYMRFQMAGMVYM | inactive
159 | RELFTFGVFRYQASL | 0.817 ± 0.22
